Reference: patent US20100081787A1 (FIBREX MEDICAL RESEARCH AND DEVELOPMENT, published 2010)
Numbered stars: 1 amine (or outer) side, 2 acyl side, 3 side chain; on linkers, the order of the positions; unused ones are H or OH. Square brackets hold non-standard residues; d marks the D form. Ends that are not written are not given here. ACHC(1S,2R) = O=C([C@H]1CCCC[C@H]1N[*:1])[*:2]

Target: T1, vascular endothelial (VE) cadherin (human, UniProt P33151 48-784)
T1 sequence (looked up): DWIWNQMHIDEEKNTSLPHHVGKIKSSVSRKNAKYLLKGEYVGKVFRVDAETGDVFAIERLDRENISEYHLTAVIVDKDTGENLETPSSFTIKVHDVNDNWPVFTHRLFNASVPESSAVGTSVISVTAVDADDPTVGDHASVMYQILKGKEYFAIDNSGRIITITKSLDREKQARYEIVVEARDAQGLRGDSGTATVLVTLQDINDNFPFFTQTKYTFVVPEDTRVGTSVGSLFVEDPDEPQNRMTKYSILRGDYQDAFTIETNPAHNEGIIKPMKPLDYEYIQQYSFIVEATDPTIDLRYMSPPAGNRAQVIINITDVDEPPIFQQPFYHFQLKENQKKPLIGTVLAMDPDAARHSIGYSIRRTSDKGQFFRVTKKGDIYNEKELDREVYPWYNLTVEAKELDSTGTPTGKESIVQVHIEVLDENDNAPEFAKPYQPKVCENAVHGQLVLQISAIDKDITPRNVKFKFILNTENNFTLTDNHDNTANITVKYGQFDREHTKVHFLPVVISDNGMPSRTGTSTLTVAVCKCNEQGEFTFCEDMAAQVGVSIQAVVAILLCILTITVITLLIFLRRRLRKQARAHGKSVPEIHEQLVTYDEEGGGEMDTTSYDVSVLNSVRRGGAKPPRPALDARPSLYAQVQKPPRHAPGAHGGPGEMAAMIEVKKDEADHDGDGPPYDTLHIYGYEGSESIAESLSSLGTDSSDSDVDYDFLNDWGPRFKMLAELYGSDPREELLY
Test: cell-based or functional assay

GHRP[ACHC(1S,2R)]ISGG [Gly-His-Arg-Pro-(1S, 2R)Achc-Ile-Ser-Gly-Gly]
Relative RhoA stimulation compared to unstimulated control: 2.2 relative to unstimulated control
